One substance from paper PMC2574963 can be followed below.

The target of this test is Heat shock protein 90α (human) (UniProt P07900). As to the kind of experiment: pull-down.

With “Recombinant human Hsp70 (from UniProt P0DMV8 1-641) (natural protein)”, the percent eluted, Hsp70 alone without m3 (control beads' nonadsorbed = 100%) is 18% and the percent nonadsorbed, Hsp70 alone without m3 (control beads' nonadsorbed = 100%) stood at 70%.
